Our source for the enrichment values is publication PMC13397619.

B1: NLV3 TCR beta chain (CDR3β only) (parent)
chain: ASSPTGGSPSPLH
partner: MLVPMVATV

The assay covers variants of B1. The assay is described as follows: T-Switch: Jurkat TCRβ−/− cells expressing a CDR3 saturation-mutagenesis library, stained with two peptide-HLA-A*02:01 tetramers (original and novel peptide) plus anti-CD3, FACS-sorted into four gates, gDNA sequenced. Particulars: with HLA-A*02:01 with peptide … (NLV 3-1, the original bait), tetramers 1 µg/mL, 30 min on ice, DP and SW gates expanded about 10 days between rounds ('two to three rounds of selection' in the Methods), gate SP: higher = more of the variant in the gate that binds the original peptide and not the novel one = retained original binding. Fold enrichment of the CDR3 variant in one FACS gate of a two-tetra, unresolved parent, parent is a CDR3 fragment, scale: fold enrichment, numbering: sequential-on-construct, sequence ….
On to […] (CDR3 as printed); G7D derived by comparing it with the table's wild-type CDR3 ASSPTGGSPSPLH, for which the enrichment was 0.

In the case of […] (CDR3 as printed); P11S derived by comparing it with the table's wild-type CDR3 ASSPTGGSPSPLH, the enrichment was determined as 2.02. Then […] (CDR3 as printed); H13R derived by comparing it with the table's wild-type CDR3 ASSPTGGSPSPLH, with 4.99; and […] (CDR3 as printed); S10N derived by comparing it with the table's wild-type CDR3 ASSPTGGSPSPLH, with 0; and […] (CDR3 as printed); T5M derived by comparing it with the table's wild-type CDR3 ASSPTGGSPSPLH, with 7.93. In the case of […] (CDR3 as printed); G6T derived by comparing it with the table's wild-type CDR3 ASSPTGGSPSPLH it was 0.64; in that of […] (CDR3 as printed); G7H derived by comparing it with the table's wild-type CDR3 ASSPTGGSPSPLH, 0; in that of […] (CDR3 as printed); L12R derived by comparing it with the table's wild-type CDR3 ASSPTGGSPSPLH, 0. […] (CDR3 as printed); T5V derived by comparing it with the table's wild-type CDR3 ASSPTGGSPSPLH: the enrichment is 19.2. In the case of […] (CDR3 as printed); P11T derived by comparing it with the table's wild-type CDR3 ASSPTGGSPSPLH it was 0. Then […] (CDR3 as printed); P11E derived by comparing it with the table's wild-type CDR3 ASSPTGGSPSPLH, with 4.19.

[…] (CDR3 as printed); S8I derived by comparing it with the table's wild-type CDR3 ASSPTGGSPSPLH: the enrichment amounted to 0. As to […] (CDR3 as printed); S10K derived by comparing it with the table's wild-type CDR3 ASSPTGGSPSPLH, the enrichment was 0. Then […] (CDR3 as printed); S8W derived by comparing it with the table's wild-type CDR3 ASSPTGGSPSPLH, with 0. In the case of […] (CDR3 as printed); S8F derived by comparing it with the table's wild-type CDR3 ASSPTGGSPSPLH it was 0; in that of […] (CDR3 as printed); S8Y derived by comparing it with the table's wild-type CDR3 ASSPTGGSPSPLH, 8.08; in that of […] (CDR3 as printed); G6F derived by comparing it with the table's wild-type CDR3 ASSPTGGSPSPLH, 0. Then […] (CDR3 as printed); L12S derived by comparing it with the table's wild-type CDR3 ASSPTGGSPSPLH, with 1.12; and […] (CDR3 as printed); S10P derived by comparing it with the table's wild-type CDR3 ASSPTGGSPSPLH, with 0; and […] (CDR3 as printed); S10L derived by comparing it with the table's wild-type CDR3 ASSPTGGSPSPLH, with 8.65. Take […] (CDR3 as printed); P4K derived by comparing it with the table's wild-type CDR3 ASSPTGGSPSPLH: the enrichment worked out at 0.

For […] (CDR3 as printed); S2M derived by comparing it with the table's wild-type CDR3 ASSPTGGSPSPLH, the enrichment was 0. Then […] (CDR3 as printed); G7Q derived by comparing it with the table's wild-type CDR3 ASSPTGGSPSPLH, with 0; and […] (CDR3 as printed); S8D derived by comparing it with the table's wild-type CDR3 ASSPTGGSPSPLH, with 0. Then […] (CDR3 as printed); P4C derived by comparing it with the table's wild-type CDR3 ASSPTGGSPSPLH, with 0. Then […] (CDR3 as printed); G6L derived by comparing it with the table's wild-type CDR3 ASSPTGGSPSPLH, with 0; and […] (CDR3 as printed); H13D derived by comparing it with the table's wild-type CDR3 ASSPTGGSPSPLH, with 8.55; and […] (CDR3 as printed); H13M derived by comparing it with the table's wild-type CDR3 ASSPTGGSPSPLH, with 6.07. Take […] (CDR3 as printed); S2R derived by comparing it with the table's wild-type CDR3 ASSPTGGSPSPLH: the enrichment is 0.

[…] (CDR3 as printed); S3C derived by comparing it with the table's wild-type CDR3 ASSPTGGSPSPLH: the enrichment is 11.2. Then […] (CDR3 as printed); S3L derived by comparing it with the table's wild-type CDR3 ASSPTGGSPSPLH, with 0. In the case of […] (CDR3 as printed); G7W derived by comparing it with the table's wild-type CDR3 ASSPTGGSPSPLH it was 0; in that of […] (CDR3 as printed); G6K derived by comparing it with the table's wild-type CDR3 ASSPTGGSPSPLH, 0; in that of […] (CDR3 as printed); S2F derived by comparing it with the table's wild-type CDR3 ASSPTGGSPSPLH, 3.1. As for […] (CDR3 as printed); T5R derived by comparing it with the table's wild-type CDR3 ASSPTGGSPSPLH, the enrichment came out at 0. In the case of […] (CDR3 as printed); S3M derived by comparing it with the table's wild-type CDR3 ASSPTGGSPSPLH it was 0. In the case of […] (CDR3 as printed); S2C derived by comparing it with the table's wild-type CDR3 ASSPTGGSPSPLH it was 5.16.

For the variant […] (CDR3 as printed); T5F derived by comparing it with the table's wild-type CDR3 ASSPTGGSPSPLH, the enrichment came to 12.8.

As to […] (CDR3 as printed); H13W derived by comparing it with the table's wild-type CDR3 ASSPTGGSPSPLH, the enrichment was 8.46. Then […] (CDR3 as printed); G7M derived by comparing it with the table's wild-type CDR3 ASSPTGGSPSPLH, with 0; and […] (CDR3 as printed); P11A derived by comparing it with the table's wild-type CDR3 ASSPTGGSPSPLH, with 7.15; and […] (CDR3 as printed); H13K derived by comparing it with the table's wild-type CDR3 ASSPTGGSPSPLH, with 3.5. Then […] (CDR3 as printed); H13Q derived by comparing it with the table's wild-type CDR3 ASSPTGGSPSPLH, with 5.02. In the case of […] (CDR3 as printed); P11Q derived by comparing it with the table's wild-type CDR3 ASSPTGGSPSPLH it was 5.97; in that of […] (CDR3 as printed); L12N derived by comparing it with the table's wild-type CDR3 ASSPTGGSPSPLH, 0. […] (CDR3 as printed); L12G derived by comparing it with the table's wild-type CDR3 ASSPTGGSPSPLH: the enrichment came out at 0. For the variant […] (CDR3 as printed); A1K derived by comparing it with the table's wild-type CDR3 ASSPTGGSPSPLH, the enrichment turned out to be 0. Then […] (CDR3 as printed); T5K derived by comparing it with the table's wild-type CDR3 ASSPTGGSPSPLH, with 0; and […] (CDR3 as printed); P11C derived by comparing it with the table's wild-type CDR3 ASSPTGGSPSPLH, with 6.3; and […] (CDR3 as printed); G6C derived by comparing it with the table's wild-type CDR3 ASSPTGGSPSPLH, with 0.
